Assay results: patent publication US20110014213A1 (JURIDICAL FDN THE CHEMO SERO THERAP RES INS, published 2011)

T1: human α9 integrin (human, UniProt Q13797 30-1035)
T1 construct: The β chain partner on the cells is not described; also called hα9; SW480/hα9
T1 sequence: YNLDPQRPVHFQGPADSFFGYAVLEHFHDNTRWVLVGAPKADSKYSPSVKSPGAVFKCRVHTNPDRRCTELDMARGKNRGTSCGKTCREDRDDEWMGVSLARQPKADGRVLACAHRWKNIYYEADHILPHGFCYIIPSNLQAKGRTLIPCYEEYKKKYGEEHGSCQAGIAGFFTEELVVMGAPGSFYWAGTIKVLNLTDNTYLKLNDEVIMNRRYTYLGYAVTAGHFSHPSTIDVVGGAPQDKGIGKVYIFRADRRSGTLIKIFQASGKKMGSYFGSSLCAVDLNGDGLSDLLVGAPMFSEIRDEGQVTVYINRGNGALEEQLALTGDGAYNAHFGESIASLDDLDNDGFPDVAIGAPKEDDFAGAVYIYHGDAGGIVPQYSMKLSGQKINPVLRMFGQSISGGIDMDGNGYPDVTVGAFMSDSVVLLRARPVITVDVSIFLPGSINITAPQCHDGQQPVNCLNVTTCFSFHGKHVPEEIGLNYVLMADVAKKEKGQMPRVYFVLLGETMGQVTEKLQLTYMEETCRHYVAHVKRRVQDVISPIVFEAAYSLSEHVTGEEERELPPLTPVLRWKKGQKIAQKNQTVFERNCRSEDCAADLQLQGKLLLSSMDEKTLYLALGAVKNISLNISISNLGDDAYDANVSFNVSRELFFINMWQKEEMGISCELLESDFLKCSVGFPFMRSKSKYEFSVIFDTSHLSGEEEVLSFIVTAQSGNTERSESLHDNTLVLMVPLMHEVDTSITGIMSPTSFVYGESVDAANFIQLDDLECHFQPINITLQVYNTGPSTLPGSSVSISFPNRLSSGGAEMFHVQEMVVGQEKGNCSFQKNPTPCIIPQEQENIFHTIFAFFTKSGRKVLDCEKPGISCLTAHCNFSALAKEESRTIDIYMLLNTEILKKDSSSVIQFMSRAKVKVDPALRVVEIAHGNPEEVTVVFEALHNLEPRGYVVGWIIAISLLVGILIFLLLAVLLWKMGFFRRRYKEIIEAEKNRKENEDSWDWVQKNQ

T2: mouse α9 integrin (mouse, UniProt B8JK39 29-1036)
T2 chain: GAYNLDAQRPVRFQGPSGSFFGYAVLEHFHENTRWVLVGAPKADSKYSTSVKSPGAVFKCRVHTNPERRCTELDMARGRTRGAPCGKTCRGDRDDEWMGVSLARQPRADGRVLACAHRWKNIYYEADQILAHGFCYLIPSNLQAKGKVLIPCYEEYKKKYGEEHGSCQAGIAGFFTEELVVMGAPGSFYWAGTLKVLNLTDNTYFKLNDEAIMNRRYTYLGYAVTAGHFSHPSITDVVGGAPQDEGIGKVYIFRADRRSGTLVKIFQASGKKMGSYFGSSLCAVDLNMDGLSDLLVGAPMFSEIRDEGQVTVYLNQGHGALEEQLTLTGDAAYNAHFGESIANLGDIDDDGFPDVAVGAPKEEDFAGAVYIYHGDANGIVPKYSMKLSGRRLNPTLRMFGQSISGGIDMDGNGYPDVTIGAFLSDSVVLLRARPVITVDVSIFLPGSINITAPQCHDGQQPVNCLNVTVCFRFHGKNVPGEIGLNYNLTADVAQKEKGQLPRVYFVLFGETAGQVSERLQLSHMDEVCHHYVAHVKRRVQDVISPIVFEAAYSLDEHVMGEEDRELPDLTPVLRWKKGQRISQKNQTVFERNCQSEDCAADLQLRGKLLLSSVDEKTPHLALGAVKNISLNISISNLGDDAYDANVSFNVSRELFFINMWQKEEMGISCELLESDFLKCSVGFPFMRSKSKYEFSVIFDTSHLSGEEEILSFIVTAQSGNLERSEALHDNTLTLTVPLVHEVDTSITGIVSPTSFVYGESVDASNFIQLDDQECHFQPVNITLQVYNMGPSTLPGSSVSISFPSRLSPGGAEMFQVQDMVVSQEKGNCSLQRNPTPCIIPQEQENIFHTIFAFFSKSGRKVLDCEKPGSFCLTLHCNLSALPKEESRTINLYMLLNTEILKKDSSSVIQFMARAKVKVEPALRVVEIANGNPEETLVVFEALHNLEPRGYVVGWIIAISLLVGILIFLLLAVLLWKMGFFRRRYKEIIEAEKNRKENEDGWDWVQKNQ

B1: HA9-212 IgG (antibody, V domains shown)
VH: EVQLVESGGGVVRPGGSLRLSCAASGFAFGEYGMSWVRQAPGKGLEWVSGINWNGGSTGYADSVQGRFTTSRDNAKNSLYLQMNSLRAEDTALYYCARDENYDILTGNYYYGMDVWGQGTTVTVSS
VL: QSVVTQPPSVSAAPGQKVTISCSGSSSNIGNNYVSWYQQLPGTAPKLLIYDNNKRPSGIPDRFSASKSGTSATLGITGLQTGDEADYYCGTWDSSLTVWAFGGGTKLTVLG
notes: VH joined to human IgG1 constant region; VL joined to 'human x chain constant region'; Tested as culture supernatant of COS-7 / FreeStyle 293-F cells
B2: HA9-107 scFv-Fc (Fc fusion, not shown: a dimerising Fc or GST)
scFv: EVQLVESGGGVVRPGGSLRLSCAASGFAFGDYGMSWVRQAPGKGLEWVSGINWNGGSTGYADSVKGRFTTSRDNAKNSLYLQMNSLRAEDTALYYCARDENYDILTNEYYYGMDVWGQGTTVTVSSGGGGSGGGGSGGGGSQSVVTQPPSVSAAPGQKVTISCSGSSSNIGNNYVSWYQQLPGTAPKLLIYDNNKRPSGIPDRFSASKSGTSATLGITGLQTGDEADYYCGTWDSSLTVWAFGGGTKLTVLG
B3: HA9-143 scFv-Fc (Fc fusion, not shown: a dimerising Fc or GST)
scFv: EVQLVESGGGVVRPGGSLRLSCAASGFAFGEYGMSWVRQAPGKGLEWVSGINWNGGSTGYADSVKGRFTTSRDNAKNSLYLQMNSLRAEDTALYYCARDENYDILTGHYYYGMDVWGQGTTVTVSSGGGGSGGGGSGGGGSQSVVTQPPSVSAAPGQKVTISCSGSSSNIGNNYVSWYQQLPGTAPKLLIYDNNKRPSGIPDRFSASKSGTSATLGITGLQTGDEADYYCGTWDSSLTVWAFGGGTKLTVLG
B4: HA9-212 scFv-Fc (Fc fusion, not shown: a dimerising Fc or GST)
scFv: EVQLVESGGGVVRPGGSLRLSCAASGFAFGEYGMSWVRQAPGKGLEWVSGINWNGGSTGYADSVQGRFTTSRDNAKNSLYLQMNSLRAEDTALYYCARDENYDILTGNYYYGMDVWGQGTTVTVSSGGGGSGGGGSGGGGSQSVVTQPPSVSAAPGQKVTISCSGSSSNIGNNYVSWYQQLPGTAPKLLIYDNNKRPSGIPDRFSASKSGTSATLGITGLQTGDEADYYCGTWDSSLTVWAFGGGTKLTVLG
B5: MA9-418 scFv-Fc (Fc fusion, not shown: a dimerising Fc or GST)
scFv: EVQLVESGGGVVRPGGSLRLSCAASGFAFGDYGMSWVRQAPGKGLEWVSGINWNGGSTGYADSVKGRFTTSRDNAKNSLYLQMNSLRAEDTALYYCARDENYDILTGAYYYGMDVWGQGTTVTVSSGGGGSGGGGSGGGGSQSVVTQPPSVSAAPGQKVTISCSGSSSNIGNNYVSWYQQLPGTAPKLLIYDNNKRPSGIPDRFSASKSGTSATLGITGLQTGDEADYYCGTWDSSLTVWAFGGGTKLTVLG

What was measured:
human α9 integrin [1] = target: T1, human α9 integrin; experiment: Cell ELISA of IgG in culture supernatant, anti-human IgG(Fc) detection
Protocol: CHO/mα9 and CHO were seeded on a 96 well plate (costar) at 2×10⁴ cells/100 μL/well, and incubated overnight at 37° C., 5% CO₂. The medium was suctioned, and the cells were washed with PBS, and reacted with phage antibody diluted with 1% BSA/PBS. The detection was performed by using horse-radish peroxidase (HRP)-labeled anti-M13 antibody (Amersham) and TMB (SIGMA) in combination. The absorbance at wavelengths 450 nm and 650 nm was measured by a microplate reader (Molecular Devices).
SW480/mα9, SW480/hα9 and SW480 were used as antigens, 1% BSA/PBS containing 5% FBS was used as a dilution solution, an HRP-labeled anti-mouse IgG antibody (ZYMED) was used for detection, and the rest was performed under the same conditions as in Example 4.
The IgG expression amount in the culture supernatant was quantified by human IgG quantification ELISA, and the reactivity with human α9 and mouse α9 at each IgG concentration was analyzed by Cell ELISA. HRP-labeled anti-human IgG(Fc) antibody (American Qualex) was used for detection, and the rest was performed under the same conditions as in Example 11.

mouse α9 integrin = target: T2, mouse α9 integrin; experiment: cell-based or functional assay
human α9 integrin [2] = target: T1, human α9 integrin; experiment: cell-based or functional assay
human α9 integrin [3] = target: T1, human α9 integrin; experiment: cell-based or functional assay; remark: listed apart in the source

Binder | binding result (human α9 integrin [1]) | IC50 of inhibition of α9-dependent cell adhesion (mouse α9 integrin) | IC50 of inhibition of α9-dependent cell adhesion (human α9 integrin [2]) | fold inhibitory activity against human α9-dependent cell adhesion, against MA9-413 (human α9 integrin [3])
B1 | binds |  |  | 
B2 |  | 0.067 µg/mL | > 10 µg/mL | 
B3 |  | 2.32 µg/mL | 0.42 µg/mL | 
B4 |  | 3.3 µg/mL | 0.053 µg/mL | ~1000 fold
B5 |  | 0.96 µg/mL | > 10 µg/mL | 
